The values below are quoted from earlier work in patent US20200069786A1, “COMPOSITION AND PROCESS FOR PREPARING VACCINE” (TREOS BIO ZRT., priority 2018, published 2020).

Like-named read-outs stand apart in the source and are kept apart here.

The data set relates to TSA.
The mark [1] stands for this setting: TSA expression rate in Cervical cancer.
Where [2] appears, read: TSA expression rate in GASTRIC cancer.
Setting [3] is: TSA expression rate in MELANOMA
[4] abbreviates: TSA expression rate in PROSTATE cancer.
Where [5] appears, read: TSA expression rate in Esophageal.
The mark [6] stands for this setting: TSA expression rate in LUNG cancer.
Where [7] appears, read: TSA expression rate in BLADDER cancer.
The mark [8] stands for this setting: TSA expression rate in HEAD and NECK.

B1: PASD1 (protein, UniProt Q8IV76 1-773, looked up)
Circadian clock protein PASD1: MKMRGEKRRDKVNPKSSQRKLNWIPSFPTYDYFNQVTLQLLDGFMITLSTDGVIICVAENISSLLGHLPAEIVGKKLLSLLPDEEKDEVYQKIILKFPLLNSETHIEFCCHLKRGNVEHGDSSAYENVKFIVNVRDICNEFPVVFSGLFSSHLCADFAACVPQEDRLYLVGNVCILRTQLLQQLYTSKAVSDEAVLTQDSDEEPFVGELSSSQGQRGHTSMKAVYVEPAAAAAAAAISDDQIDIAEVEQYGPQENVHMFVDSDSTYCSSTVFLDTMPESPALSLQDFRGEPEVNPLYRADPVDLEFSVDQVDSVDQEGPMDQQDPENPVAPLDQAGLMDPVDPEDSVDLGAAGASAQPLQPSSPVAYDIISQELELMKKLKEQLEERTWLLHDAIQNQQNALELMMDHLQKQPNTLRHVVIPDLQSSEAVPKKQQKQHAGQVKRPLPHPKDVKCFCGLSLSNSLKNTGELQEPCVAFNQQQLVQQEQHLKEQQRQLREQLQQLREQRKVQKQKKMQEKKKLQEQKMQEKKKLQEQRRQKKKKLQERKKWQGQMLQKEPEEEQQKQQLQEQPLKHNVIVGNERVQICLQNPRDVSVPLCNHPVRFLQAQPIVPVQRAAEQQPSGFYQDENCGQQEDESQSFYPEAYQGPPVNQLPLIDTSNSEAISSSSIPQFPITSDSTISTLETPQDYIRLWQELSDSLGPVVQVNTWSCDEQGTLHGQPTYHQVQVSEVGVEGPPDPQAFQGPAAYQPDQMRSAEQTRLMPAEQRDSNKPC
Consider B1, for which the “TSA Expression Rate (ER)” value reads like this: (BRAIN) 31%; (LUNG) 29%; (THYROID) 25%. Also, the “Expression Rate (ER) %” value is 44% (TSA expression rate in CRC); 58% under setting [1]; 44% under setting [2]; 44% under setting [3]; 29% under setting [4].

B2: FAM46D (protein, UniProt Q8NEK8 1-389, looked up)
Terminal …: MSEIRFTNLTWDQVITLDQVLDEVIPIHGKGNFPTMEVKPKDIIHVVKDQLIGQGIIVKDARLNGSVASYILASHNGISYKDLDVIFGVELPGNEEFQVVKDAVLDCLLDFLPKDVKKEKLSPDIMKDAYVQKLVKVCNGHDCWSLISLSNNTGKNLELKFVSSLRRQFEFSVDSFQIVLDPMLDFYSDKNAKLTKESYPVVVAESMYGDFQEAMTHLQHKLICTRKPEEIRGGGLLKYCSLLVHGFKPACMSEIKNLERYMCSRFFIDFPHIEEQQKKIESYLHNHFIGEGMTKYDYLMTLHGVVNESTVCLMSYERRQILHLITMMALKVLGELNILPNTQKVTCFYQPAPYFAAEARYPIYVIPEPPPVSFQPYHPLHFRGSNGMS
With B2, the “TSA Expression Rate (ER)” value (BRAIN) is reported as 8%, the “TSA Expression Rate (ER)” value (LUNG) was 50% and the “TSA Expression Rate (ER)” value (THYROID) is listed as 8%. Moreover, the “Expression Rate (ER) %” value is 22% (TSA expression rate in CRC); 37% under setting [1]; 11% under setting [2]; 28% under setting [3]; 33% under setting [4].

B3: SLCO6A1 (protein, UniProt Q86UG4 1-719, looked up)
Solute carrier organic anion …: MFVGVARHSGSQDEVSRGVEPLEAARAQPAKDRRAKGTPKSSKPGKKHRYLRLLPEALIRFGGFRKRKKAKSSVSKKPGEVDDSLEQPCGLGCLVSTCCECCNNIRCFMIFYCILLICQGVVFGLIDVSIGDFQKEYQLKTIEKLALEKSYDISSGLVAIFIAFYGDRKKVIWFVASSFLIGLGSLLCAFPSINEENKQSKVGIEDICEEIKVVSGCQSSGISFQSKYLSFFILGQTVQGIAGMPLYILGITFIDENVATHSAGIYLGIAECTSMIGYALGYVLGAPLVKVPENTTSATNTTVNNGSPEWLWTWWINFLFAAVVAWCTLIPLSCFPNNMPGSTRIKARKRKQLHFFDSRLKDLKLGTNIKDLCAALWILMKNPVLICLALSKATEYLVIIGASEFLPIYLENQFILTPTVATTLAGLVLIPGGALGQLLGGVIVSTLEMSCKALMRFIMVTSVISLILLVFIIFVRCNPVQFAGINEDYDGTGKLGNLTAPCNEKCRCSSSIYSSICGRDDIEYFSPCFAGCTYSKAQNQKKMYYNCSCIKEGLITADAEGDFIDARPGKCDAKCYKLPLFIAFIFSTLIFSGFSGVPIVLAMTRVVPDKLRSLALGVSYVILRIFGTIPGPSIFKMSGETSCILRDVNKCGHTGRCWIYNKTKMAFLLVGICFLCKLCTIIFTTIAFFIYKRRLNENTDFPDVTVKNPKVKKKEETDL
Consider B3, for which the “TSA Expression Rate (ER)” value reads like this: (BRAIN) 19%; (BREAST) 7%. Also, the “Expression Rate (ER) %” value under setting [5] is given as 33% and the “Expression Rate (ER) %” value under setting [6] is given as 7%.

B4: HAGE (protein, UniProt Q9NXZ2 1-648, looked up)
Probable ATP-dependent RNA …: MSHHGGAPKASTWVVASRRSSTVSRAPERRPAEELNRTGPEGYSVGRGGRWRGTSRPPEAVAAGHEELPLCFALKSHFVGAVIGRGGSKIKNIQSTTNTTIQIIQEQPESLVKIFGSKAMQTKAKAVIDNFVKKLEENYNSECGIDTAFQPSVGKDGSTDNNVVAGDRPLIDWDQIREEGLKWQKTKWADLPPIKKNFYKESTATSAMSKVEADSWRKENFNITWDDLKDGEKRPIPNPTCTFDDAFQCYPEVMENIKKAGFQKPTPIQSQAWPIVLQGIDLIGVAQTGTGKTLCYLMPGFIHLVLQPSLKGQRNRPGMLVLTPTRELALQVEGECCKYSYKGLRSVCVYGGGNRDEQIEELKKGVDIIIATPGRLNDLQMSNFVNLKNITYLVLDEADKMLDMGFEPQIMKILLDVRPDRQTVMTSATWPHSVHRLAQSYLKEPMIVYVGTLDLVAVSSVKQNIIVTTEEEKWSHMQTFLQSMSSTDKVIVFVSRKAVADHLSSDLILGNISVESLHGDREQRDREKALENFKTGKVRILIATDLASRGLDVHDVTHVYNFDFPRNIEEYVHRIGRTGRAGRTGVSITTLTRNDWRVASELINILERANQSIPEELVSMAERFKAHQQKREMERKMERPQGRPKKFH
Turning to B4, the “TSA Expression Rate (ER)” value (BRAIN) is given as 38%, the “TSA Expression Rate (ER)” value (BREAST) is given as 14%, the “TSA Expression Rate (ER)” value (LUNG) was 32% and the “TSA Expression Rate (ER)” value (THYROID) is reported as 20%. Moreover, the “Expression Rate (ER) %” value under setting [7] is given as 24%; the “Expression Rate (ER) %” value (TSA expression rate in CRC) was 15%; the “Expression Rate (ER) %” value under setting [5] is 27%; the “Expression Rate (ER) %” value under setting [8] was 20%; the “Expression Rate (ER) %” value (TSA expression rate in Kidney) is 6%; the “Expression Rate (ER) %” value under setting [3] was 17%. For the same molecule, the “Expression Rate (ER) %” value under setting [4] is reported as 22%.

B5: SP17 (protein, UniProt Q15506 1-151, looked up)
Sperm surface protein Sp17: MSIPFSNTHYRIPQGFGNLLEGLTREILREQPDNIPAFAAAYFESLLEKREKTNFDPAEWGSKVEDRFYNNHAFEEQEPPEKSDPKQEESQISGKEEETSVTILDSSEEDKEKEEVAAVKIQAAFRGHIAREEAKKMKTNSLQNEEKEENK
B5: the “TSA Expression Rate (ER)” value runs as follows: (BRAIN) 13%; (BREAST) 47%; (HCC) 87%; (OVARIAN) 62%; (THYROID) 10%. For the same molecule, the “Expression Rate (ER) %” value is given as 61% under setting [1], 81% under setting [5], 12% under setting [6] and 10% under setting [4].

B6: GAGE-1 (protein, UniProt P0DTW1 1-117, looked up)
G antigen 1: MSWRGRSTYYWPRPRRYVQPPEMIGPMRPEQFSDEVEPATPEEGEPATQRQDPAAAQEGEDEGASAGQGPKPEADSQEQGHPQTGCECEDGPDGQEMDPPNPEEVKTPEEGEGQSQC
Take B6: the “TSA Expression Rate (ER)” value (BRAIN) is listed as 42%. Further, under setting [8], the “Expression Rate (ER) %” value is reported as 39%.

B7: NXF2 (protein, UniProt Q9GZY0 1-626, looked up)
Nuclear RNA export factor 2: MCSTLKKCGTYRTEVAECHDHGSTFQGRKKGGSSFRDNFDKRSCHYEHGGYERPPSHCQENDGSVEMRDVHKDQQLRHTPYSIRCERRMKWHSEDEIRITTWRNRKPPERKMSQNTQDGYTRNWFKVTIPYGIKYDKAWLMNSIQSHCSDRFTPVDFHYVRNRACFFVQDASAASALKDVSYKIYDDENQKICIFVNHSTAPYSVKNKLKPGQMEMLKLTMNKRYNVSQQALDLQNLRFDPDLMGRDIDIILNRRNCMAATLKIIERNFPELLSLNLCNNKLYQLDGLSDITEKAPKVKTLNLSKNKLESAWELGKVKGLKLEELWLEGNPLCSTFSDQSAYVSAIRDCFPKLLRLDGRELSAPVIVDIDSSETMKPCKENFTGSETLKHLVLQFLQQYYSIYDSGDRQGLLGAYHDEACFSLAIPFDPKDSAPSSLCKYFEDSRNMKTLKDPYLKGELLRRTKRDIVDSLSALPKTQHDLSSILVDVWCQTERMLCFSVNGVFKEVEGQSQGSVLAFTRTFIATPGSSSSLCIVNDELFVRDASPQETQSAFSIPVSTLSSSSEPSLSQEQQEMVQAFSAQSGMKLEWSQKCLQDNEWNYTRAGQAFTMLQTEGKIPAEAFKQIS
For B7, the “TSA Expression Rate (ER)” value is 18% (BRAIN), 2% (BREAST) and 20% (THYROID). Moreover, the “Expression Rate (ER) %” value was 19% under setting [7]; 9% (TSA expression rate in CRC); 17% under setting [5]; 6% under setting [2]; 5% under setting [8]; 0% (TSA expression rate in Kidney). Also, the “Expression Rate (ER) %” value under setting [6] was 15%, the “Expression Rate (ER) %” value under setting [3] is 8% and the “Expression Rate (ER) %” value under setting [4] is listed as 14%.

B8: MAGE-A11 (protein, UniProt P43364 1-429, looked up)
Melanoma-associated antigen 11: METQFRRGGLGCSPASIKRKKKREDSGDFGLQVSTMFSEDDFQSTERAPYGPQLQWSQDLPRVQVFREQANLEDRSPRRTQRITGGEQVLWGPITQIFPTVRPADLTRVIMPLEQRSQHCKPEEGLQAQEEDLGLVGAQALQAEEQEAAFFSSTLNVGTLEELPAAESPSPPQSPQEESFSPTAMDAIFGSLSDEGSGSQEKEGPSTSPDLIDPESFSQDILHDKIIDLVHLLLRKYRVKGLITKAEMLGSVIKNYEDYFPEIFREASVCMQLLFGIDVKEVDPTSHSYVLVTSLNLSYDGIQCNEQSMPKSGLLIIVLGVIFMEGNCIPEEVMWEVLSIMGVYAGREHFLFGEPKRLLTQNWVQEKYLVYRQVPGTDPACYEFLWGPRAHAETSKMKVLEYIANANGRDPTSYPSLYEDALREEGEGV
For B8, the “TSA Expression Rate (ER)” value is, setting by setting: (BREAST) 59%; (HCC) 36%. The “Expression Rate (ER) %” value was 37% under setting [8] and 54% under setting [3].
